Experimental data: PMC7498358

Biological target: YB-1 CSDex (Homo sapiens, UniProt P67809 51-140)
Test: NMR HSQC titration

Sequence of YB-1 CSDex (P67809 51-140): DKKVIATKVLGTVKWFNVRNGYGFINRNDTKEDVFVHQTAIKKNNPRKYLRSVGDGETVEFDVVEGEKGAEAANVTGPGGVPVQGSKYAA

B1: CACC dsDNA (dsDNA)
DNA 1: TCAACACCTC
DNA 2: GAGGTGTTGA
  binding result: binds
